Residue numbers refer to the chain shown, from its start. Numbers in names are those of the source.

The source of these data is article PMC2532785 (The EMBO Journal, 2008).

The data set deals with the molecule itself. Nature of the data set: conventional and dynamic light scattering.

B1: WT Irga6, recombinant (enzyme, mouse, UniProt Q9QZ85 1-413, looked up)
chain: MGQLFSSPKSDENNDLPSSFTGYFKKFNTGRKIISQEILNLIELRMRKGNIQLTNSAISDALKEIDSSVLNVAVTGETGSGKSSFINTLRGIGNEEEGAAKTGVVEVTMERHPYKHPNIPNVVFWDLPGIGSTNFPPNTYLEKMKFYEYDFFIIISATRFKKNDIDIAKAISMMKKEFYFVRTKVDSDITNEADGKPQTFDKEKVLQDIRLNCVNTFRENGIAEPPIFLLSNKNVCHYDFPVLMDKLISDLPIYKRHNFMVSLPNITDSVIEKKRQFLKQRIWLEGFAADLVNIIPSLTFLLDSDLETLKKSMKFYRTVFGVDETSLQRLARDWEIEVDQVEAMIKSPAVFKPTDEETIQERLSRYIQEFCLANGYLLPKNSFLKEIFYLKYYFLDMVTEDAKTLLKEICLRN
Regarding B1, the binding result is recorded as “binds”.

B2: Irga6-K82A, recombinant (enzyme, mouse, UniProt Q9QZ85 1-413, looked up)
chain: B1 chain with K82A
Take B2: the binding result is on record as “binds”.
